Data taken from the supplement of paper PMC7877785.
± gives the uncertainty stated by the source.

Experiment: self-splicing fitness, log relative to wild type (ln ratio); higher = more splicing; Tetrahymena group I intron in knt gene, E. coli kanamycin selection, DiMSum; sequences stand for … in CUCUCU…GGAGGGAAAAGUUAUCAGGCAUGCACCUGGUAGCUAGUCUUUAAACCAAUAGAUUGCAUCGGUUUAAAAGGCAAGACCGUCAAAUUGCGGGAAAGGGGUCAACAGCCGUUCAGUACCAAGUCUCAGGGGAAACUUUGAGAUGGCCUUGCAAAGGGUAUGGUAAUAAGCUGACGGACAUGGUCCUAACCACGCAGCCAAGUCCUAAGUCAACAGAUCUUCUGUUGAUAUGGAUGCAGUUCACAGACUAAAUGUCGGUCGGGGAAGAUGUAUUCUUCUCAUAAGAUAUAGUCGGACCUCUCCUUAAUGGGAGCUAGCGGAUGAAGUGAUGCAACACUGGAGCCGCUGGGAACUAAUUUGUAUGCGAAAGUAUAUUGAUUAGUUUUGGAGUACUCGUGGUCG
Method in brief: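 The eight P1ex-region nucleotides of an intron in the knt kanamycin-resistance gene on pET-22b(+) were all randomised and the library put into E. coli BL21(DE3). Six replicate transformations were grown overnight at 37°C or 30°C on LB agar with or without 25 μg/mL kanamycin, together with 100 μg/mL carbenicillin, 50 μM IPTG and 0.2% rhamnose. Colonies were pooled and amplicon-sequenced on an Illumina HiSeq 2500. Fitness from DiMSum is the error-weighted combination of wild-type-normalised replicate fold changes, kanamycin over none.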

Sequence | self-splicing fitness (ln) (30 °C) | self-splicing fitness (ln) (37 °C)
GUAGAGCAAUAUUACGUUUG | -2.91 ± 0.24 | -2.23 ± 0.29
GUAUAGCAAUAUUACGACUG | -2.88 ± 0.33 | -2.23 ± 0.33
GUAUAGCAAUAUUACGAGAG | -1.56 ± 0.22 | -2.9 ± 0.34
GUAUAGCAAUAUUACGAGUU | -3.29 ± 0.19 | -1.17 ± 0.14
GUAUAGCAAUAUUACGCCCG | -1.63 ± 0.17 | -1.37 ± 0.23
GUAUAGCAAUAUUACGGCAA | -0.453 ± 0.39 | -0.521 ± 0.35
GUAUAGCAAUAUUACGGCAU | -0.587 ± 0.081 | -0.661 ± 0.1
GUAUAGCAAUAUUACGGGCC | – | -1.55 ± 0.27
GUAUAGCAAUAUUACGGGGU | -4.08 ± 0.27 | -1.4 ± 0.14
GUAUAGCAAUAUUACGGUCC | -0.391 ± 0.28 | -1.19 ± 0.46
GUAUAGCAAUAUUACGUAAU | -2.43 ± 0.14 | -0.699 ± 0.14
GUAUAGCAAUAUUACGUCAU | -2.03 ± 0.17 | -0.747 ± 0.17
GUAUAGCAAUAUUACGUGAG | -1.85 ± 0.13 | -1.42 ± 0.17
GUAUAGCAAUAUUACGUGAU | -2.29 ± 0.15 | -1.71 ± 0.17
GUCAAGCAAUAUUACGAGAG | -2.41 ± 0.18 | -2.31 ± 0.27
GUCAAGCAAUAUUACGAUAG | -4.6 ± 0.42 | -3.02 ± 0.47
GUCAAGCAAUAUUACGCCAU | -4.64 ± 0.42 | -3.01 ± 0.18
GUCAAGCAAUAUUACGCCCG | -2.15 ± 0.21 | -1.11 ± 0.2
GUCAAGCAAUAUUACGCGGA | -2.98 ± 0.17 | -2.02 ± 0.16
GUCAAGCAAUAUUACGCGUA | -1.32 ± 0.08 | -0.362 ± 0.077
GUCAAGCAAUAUUACGCUAA | -1.48 ± 0.15 | -1.45 ± 0.14
GUCAAGCAAUAUUACGCUAG | -2.83 ± 0.15 | -2 ± 0.14
GUCAAGCAAUAUUACGUAAA | -0.78 ± 0.058 | -0.463 ± 0.07
GUCAAGCAAUAUUACGUAAC | -1.33 ± 0.17 | -0.545 ± 0.14
GUCAAGCAAUAUUACGUCGU | -1.68 ± 0.066 | -0.826 ± 0.078

Sequence | self-splicing fitness (ln) (30 °C) | self-splicing fitness (ln) (37 °C)
GUCAAGCAAUAUUACGUGGU | -4.8 ± 0.3 | -3.09 ± 0.16
GUCAAGCAAUAUUACGUGUC | -2.72 ± 0.13 | -1.46 ± 0.12
GUCCAGCAAUAUUACGAAAC | -0.222 ± 0.15 | -0.568 ± 0.2
GUCCAGCAAUAUUACGAACC | -1.97 ± 0.093 | -0.224 ± 0.11
GUCCAGCAAUAUUACGAAUA | 0.0949 ± 0.13 | -0.595 ± 0.15
GUCCAGCAAUAUUACGACAU | -0.524 ± 0.012 | 0.0313 ± 0.032
GUCCAGCAAUAUUACGAGCG | -2.31 ± 0.14 | -0.864 ± 0.15
GUCCAGCAAUAUUACGAUCC | -0.959 ± 0.087 | -0.16 ± 0.11
GUCCAGCAAUAUUACGAUGA | -1.49 ± 0.084 | -0.996 ± 0.092
GUCCAGCAAUAUUACGAUGU | -0.9 ± 0.07 | -0.235 ± 0.083
GUCCAGCAAUAUUACGCAAA | -1.46 ± 0.12 | -0.457 ± 0.11
GUCCAGCAAUAUUACGCAAU | -0.658 ± 0.071 | 0.419 ± 0.087
GUCCAGCAAUAUUACGCAGA | -3.39 ± 0.4 | -1.87 ± 0.22
GUCCAGCAAUAUUACGCCCU | -0.888 ± 0.13 | -0.617 ± 0.18
GUCCAGCAAUAUUACGCCUA | -0.215 ± 0.095 | -0.244 ± 0.093
GUCCAGCAAUAUUACGCGUG | -1.04 ± 0.063 | -0.469 ± 0.068
GUCCAGCAAUAUUACGCUAU | -0.823 ± 0.055 | -0.104 ± 0.071
GUCCAGCAAUAUUACGCUGU | -0.609 ± 0.073 | -0.386 ± 0.076
GUCCAGCAAUAUUACGGAUA | -0.361 ± 0.056 | 0.0186 ± 0.063
GUCCAGCAAUAUUACGGCAC | -1.17 ± 0.064 | -0.348 ± 0.092
GUCCAGCAAUAUUACGGCAG | – | -2.06 ± 0.2
GUCCAGCAAUAUUACGGGAC | -3.53 ± 0.2 | -2.94 ± 0.31
GUCCAGCAAUAUUACGGGCG | -2.53 ± 0.12 | -0.72 ± 0.099
GUCCAGCAAUAUUACGGGGA | -2.41 ± 0.13 | -1.37 ± 0.12
GUCCAGCAAUAUUACGGGUG | -0.386 ± 0.052 | 0.0761 ± 0.067

Sequence | self-splicing fitness (ln) (30 °C) | self-splicing fitness (ln) (37 °C)
GUCCAGCAAUAUUACGGUCU | -2.7 ± 0.12 | -1.2 ± 0.12
GUCCAGCAAUAUUACGUAGU | -0.119 ± 0.062 | 0.398 ± 0.08
GUCCAGCAAUAUUACGUCCU | -1.77 ± 0.13 | -0.83 ± 0.12
GUCCAGCAAUAUUACGUGCC | -1.16 ± 0.086 | -0.944 ± 0.11
GUCCAGCAAUAUUACGUUGU | -0.537 ± 0.051 | 0.244 ± 0.066
GUCCAGCAAUAUUACGUUUA | -0.851 ± 0.08 | -0.0697 ± 0.076
GUCCAGCAAUAUUACGUUUU | -1.19 ± 0.052 | -0.221 ± 0.069
GUCGAGCAAUAUUACGAAAU | – | -1.29 ± 0.49
GUCGAGCAAUAUUACGAAGA | -3.82 ± 0.43 | -1.74 ± 0.31
GUCGAGCAAUAUUACGACGG | – | -1.72 ± 0.43
GUCGAGCAAUAUUACGAGAC | – | 0.237 ± 0.43
GUCGAGCAAUAUUACGAUCC | -1.82 ± 0.17 | -0.489 ± 0.22
GUCGAGCAAUAUUACGAUGC | -1.17 ± 0.18 | -1.09 ± 0.18
GUCGAGCAAUAUUACGCCUA | – | -1.1 ± 0.41
GUCGAGCAAUAUUACGCGAA | -1.39 ± 0.17 | 0.0361 ± 0.17
GUCGAGCAAUAUUACGCGAG | -0.678 ± 0.096 | -0.901 ± 0.12
GUCGAGCAAUAUUACGCUCA | -0.929 ± 0.21 | -0.388 ± 0.22
GUCGAGCAAUAUUACGCUUU | -1.81 ± 0.18 | -1.92 ± 0.2
GUCGAGCAAUAUUACGGAGU | -3.59 ± 0.19 | -0.791 ± 0.094
GUCGAGCAAUAUUACGGAUU | -2.03 ± 0.26 | -0.691 ± 0.21
GUCGAGCAAUAUUACGGCAC | -1.29 ± 0.18 | -0.213 ± 0.2
GUCGAGCAAUAUUACGGCUU | – | -0.65 ± 0.49
GUCGAGCAAUAUUACGGUUU | -1.86 ± 0.11 | -1.44 ± 0.13
GUCGAGCAAUAUUACGUAGA | -2.65 ± 0.17 | -1.88 ± 0.24
GUCGAGCAAUAUUACGUAGC | -1.18 ± 0.16 | -0.606 ± 0.22

Sequence | self-splicing fitness (ln) (30 °C) | self-splicing fitness (ln) (37 °C)
GUCGAGCAAUAUUACGUAUA | -3.54 ± 0.25 | -1.63 ± 0.18
GUCGAGCAAUAUUACGUCAA | -2.62 ± 0.29 | -2.32 ± 0.22
GUCGAGCAAUAUUACGUCAG | -3.08 ± 0.16 | -2.98 ± 0.19
GUCGAGCAAUAUUACGUCUA | -1.76 ± 0.46 | -0.965 ± 0.33
GUCGAGCAAUAUUACGUGCG | -2.9 ± 0.17 | -2 ± 0.17
GUCGAGCAAUAUUACGUUCG | -3.55 ± 0.3 | -1.86 ± 0.25
GUCUAGCAAUAUUACGAAUG | -2.56 ± 0.21 | -1.43 ± 0.19
GUCUAGCAAUAUUACGACAG | -2.33 ± 0.18 | -1.71 ± 0.3
GUCUAGCAAUAUUACGAUAA | -1.09 ± 0.22 | 0.55 ± 0.23
GUCUAGCAAUAUUACGAUGG | -3.48 ± 0.17 | -0.823 ± 0.17
GUCUAGCAAUAUUACGCACU | -0.628 ± 0.047 | 0.389 ± 0.063
GUCUAGCAAUAUUACGCAGC | -2.29 ± 0.14 | -0.0809 ± 0.12
GUCUAGCAAUAUUACGCCAG | -2.46 ± 0.4 | –
GUCUAGCAAUAUUACGCCUC | -0.0816 ± 0.058 | -0.181 ± 0.068
GUCUAGCAAUAUUACGCGCU | -1.29 ± 0.19 | -0.353 ± 0.15
GUCUAGCAAUAUUACGCGUU | -0.17 ± 0.063 | -0.000183 ± 0.069
GUCUAGCAAUAUUACGGAAC | -1.15 ± 0.26 | 1.15 ± 0.16
GUCUAGCAAUAUUACGGAGC | -1.04 ± 0.15 | -1.02 ± 0.18
GUCUAGCAAUAUUACGGCCU | -2.09 ± 0.19 | -1.19 ± 0.16
GUCUAGCAAUAUUACGGUAG | – | -1.54 ± 0.26
GUCUAGCAAUAUUACGGUUC | -0.596 ± 0.089 | 0.433 ± 0.096
GUCUAGCAAUAUUACGGUUG | -2.54 ± 0.092 | -1.53 ± 0.1
GUCUAGCAAUAUUACGUAAU | -0.317 ± 0.1 | 0.597 ± 0.12
